Measurements as given in article PMC8914392, “Biochemical and structural characterizations of thioredoxin reductase selenoproteins of the parasitic filarial nematodes Brugia malayi and Onchocerca volvulus” (Redox Biology, 2022).
Where two headings read alike, the source gives them in different places.

Assays:
OvTrxR (isoform D) [1] = tested on: T1, OvTrxR (isoform D); test: TNB formation at A412; assay type: biochemical, Onchocerca volvulus; settings: 250 μM NADPH, 10 nM enzyme, pH 7.5
T1 construct: gene TrxR; pABC2a, N-terminal His-SUMO tag removed; E. coli C321.deltaA; Sec enriched; homodimer
Source text: TNB formation at A412 on OvTrxR (isoform D)

hTrxR1 = molecular target: T2, hTrxR1 (Homo sapiens, UniProt Q16881); test: TNB formation at A412; assay type: biochemical; settings: NADPH, pH 7.5
T2 construct: gene TXNRD1; recombinant selenoprotein, GCUG C-terminus, cytosolic form; homodimer
T2 sequence (Q16881 151-649): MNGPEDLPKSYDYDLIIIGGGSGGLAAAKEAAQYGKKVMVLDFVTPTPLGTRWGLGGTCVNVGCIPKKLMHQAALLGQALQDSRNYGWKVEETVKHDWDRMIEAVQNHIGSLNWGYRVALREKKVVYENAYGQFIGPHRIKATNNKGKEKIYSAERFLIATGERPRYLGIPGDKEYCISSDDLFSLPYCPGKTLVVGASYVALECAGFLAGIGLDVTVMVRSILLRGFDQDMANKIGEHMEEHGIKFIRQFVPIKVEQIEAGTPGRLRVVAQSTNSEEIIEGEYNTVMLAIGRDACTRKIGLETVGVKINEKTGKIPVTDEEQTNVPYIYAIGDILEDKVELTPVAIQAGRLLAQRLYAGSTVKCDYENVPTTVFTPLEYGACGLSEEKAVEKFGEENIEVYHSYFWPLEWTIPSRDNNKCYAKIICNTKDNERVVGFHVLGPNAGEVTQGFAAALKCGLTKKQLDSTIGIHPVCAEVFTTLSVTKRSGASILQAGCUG
Source text: TNB formation at A412 on hTrxR1

OvTrxR (isoform D) [2] = tested on: T1, OvTrxR (isoform D); test: DTNB reduction, A412, dose-response fit; assay type: biochemical, Onchocerca volvulus; settings: 25 nM enzyme, 30 min preincubation with 0.25 mM NADPH and 0.1 mg/ml BSA, 1 mM DTNB, pH 7.5; for IC50: read-out: Apparent IC50 (μM) ^a
Source text: DTNB reduction, A412, dose-response fit on OvTrxR (isoform D)

BmTrxR (isoform D) [3] = molecular target: T3, BmTrxR (isoform D) (Brugia malayi, UniProt A0A1I9G0T9); test: DTNB reduction, A412, dose-response fit; assay type: biochemical; settings: for IC50: read-out: Apparent IC50 (μM) ^a
T3 construct: gene bma-trxr-1; full-length isoform D, 598 residues, Grx-like domain 1-102 and TrxR domain 103-598, Sec at 597; pABC2a, N-terminal His-SUMO tag removed; E. coli C321.deltaA; homodimer
T3 sequence (A0A1I9G0T9 116-713): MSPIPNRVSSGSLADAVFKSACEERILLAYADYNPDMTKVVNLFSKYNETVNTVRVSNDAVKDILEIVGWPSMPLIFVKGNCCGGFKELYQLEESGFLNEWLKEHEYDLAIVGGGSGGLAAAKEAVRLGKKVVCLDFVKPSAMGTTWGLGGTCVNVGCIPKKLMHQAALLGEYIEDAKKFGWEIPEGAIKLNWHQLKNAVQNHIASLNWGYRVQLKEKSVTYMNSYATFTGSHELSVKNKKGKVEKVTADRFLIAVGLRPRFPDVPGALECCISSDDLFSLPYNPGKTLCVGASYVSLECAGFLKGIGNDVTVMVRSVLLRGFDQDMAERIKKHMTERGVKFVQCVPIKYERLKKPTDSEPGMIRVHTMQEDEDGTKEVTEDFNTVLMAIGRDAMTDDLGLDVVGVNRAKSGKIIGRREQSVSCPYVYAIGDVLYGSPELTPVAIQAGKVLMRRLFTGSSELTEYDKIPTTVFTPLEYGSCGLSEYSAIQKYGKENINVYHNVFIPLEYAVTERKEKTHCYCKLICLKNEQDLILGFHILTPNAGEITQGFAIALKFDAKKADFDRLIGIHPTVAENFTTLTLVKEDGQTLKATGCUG
Source text: DTNB reduction, A412, dose-response fit on BmTrxR (isoform D)

[4] = molecular target: thioredoxin reductase from Brugia malayi, isoform D (Brugia malayi)
[5] = molecular target: thioredoxin reductase from Onchocerca volvulus, isoform D (Onchocerca volvulus)
BmTrxR (isoform D) [6] = molecular target: T3, BmTrxR (isoform D); test: ThermoFAD; assay type: binding; settings: 1 mM NADPH; Tm without NADPH 64.5 °C
purified protein = substrate: O=C(O)c1cc(SSc2ccc([N+](=O)[O-])c(C(=O)O)c2)ccc1[N+](=O)[O-]; test: purified protein; settings: 250 μM NADPH, 20 nM enzyme, pH 7.5

Q: With `O=C(O)c1cc(SSc2ccc([N+](=O)[O-])c(C(=O)O)c2)ccc1[N+](=O)[O-]` [DTNB, 5,5′-dithiobis-(2-nitrobenzoic acid)] as the molecule, how does the Km (OvTrxR (isoform D) [1]) read?
A: 170 ± 12 µM

Q: What about the Km (hTrxR1) of the same molecule?
A: 61 ± 8.4 µM

Q: With `COc1ccc([N+](=O)[O-])c(S(=O)(=O)c2ccc(Cl)cc2)n1` [TRi-1] as the molecule, how does the IC50 (OvTrxR (isoform D) [2]) read?
A: 0.012 µM

Q: What about the IC50 (BmTrxR (isoform D) [3]) of the same molecule?
A: 0.013 µM

Q: What does the source list for “Brugia malayi thioredoxin 1 (natural protein)”?
A: Km of the reductase for the Trx, Trx-linked insulin disulfide reduction assay (NADPH consumption at A340) [4]: 2.7 µM; Km of the reductase for the Trx, Trx-linked insulin disulfide reduction assay (NADPH consumption at A340) [5]: 2.4 µM

Q: How did the Km of the reductase for the Trx, Trx-linked insulin disulfide reduction assay (NADPH consumption at A340) [4] turn out when “Brugia malayi thioredoxin 2 (natural protein)” was run?
A: 4.7 µM

Q: NADPH was tested. Which Tm (BmTrxR (isoform D) [6]) did it give?
A: 48.3 ± 0.6 °C

Q: Which Km of the reductase for the Trx, Trx-linked insulin disulfide reduction assay (NADPH consumption at A340) [4] does the source give for “Onchocerca volvulus thioredoxin 1 (natural protein)” here?
A: 1.1 µM

Q: What about the Km of the reductase for the Trx, Trx-linked insulin disulfide reduction assay (NADPH consumption at A340) [5] of the same molecule?
A: 1.6 µM

Q: How did the Km of the reductase for the Trx, Trx-linked insulin disulfide reduction assay (NADPH consumption at A340) [4] turn out when “Onchocerca volvulus thioredoxin 2 (natural protein)” was run?
A: 9.6 µM

Q: What about the Km of the reductase for the Trx, Trx-linked insulin disulfide reduction assay (NADPH consumption at A340) [5] of the same molecule?
A: 4.5 µM

Q: Which “Apparent IC50 (μM) ^a” value (OvTrxR (isoform D) [2]; unreliable (above the printed inhibitor range 1 nM-1 μM)) does the source give for TRi-2 here?
A: 1.5 µM

Q: And the “Apparent IC50 (μM) ^a” value (BmTrxR (isoform D) [3]; 25 nM enzyme, 30 min preincubation with 0.25 mM NADPH and 0.1 mg/ml BSA, 1 mM DTNB, pH 7.5, unreliable (above the printed inhibitor range 1 nM-1 μM))?
A: 1.8 µM

Q: What does the source list for auranofin?
A: IC50 (OvTrxR (isoform D) [2]; covalent): 0.0032 µM; IC50 (BmTrxR (isoform D) [3]; 25 nM enzyme, 30 min preincubation with 0.25 mM NADPH and 0.1 mg/ml BSA, 1 mM DTNB, pH 7.5, covalent): 0.0024 µM

B1: BmTrxR (isoform D) (Brugia malayi) (protein)
chain: T3 sequence (A0A1I9G0T9 116-713)
Q: With B1 as the molecule, how does the Km (purified protein) read?
A: 70 ± 7.8 µM

Q: And the kcat (purified protein)?
A: 20 ± 0.95 s⁻¹

Q: And the kcat/Km (purified protein)?
A: 283000 M⁻¹ s⁻¹
